Laboratory results as given in the RNAGym collection of RNA variant scans (doi:10.1093/molbev/msab373).

B1: Azoarcus group I ribozyme (parent)
chain: GUGCCUUGCGCCGGGAAACCACGCAAGGGAUGGUGUCAAAUUCGGCGAAACCUAAGCGCCCGCCCGGGCGUAUGGCAACGCCGAGCCAAGCUUCGGCGCCUGCGCCGAUGAAGGUGUAGAGACUAGACGGCACCCACCUAAGGCAAACGCUAUGGUGAAGGCAUAGUCCAGGGAGUGGCGAAAGUCACACAAACCGG

Variants of: B1
Assay: reverse-splicing fitness (ratio to wild type); higher = more active; in vitro selection; Mg2+ level not given
Summary of the method: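 An in vitro group I ribozyme library with randomized positions was T7-transcribed and gel-purified. In triplicate, 10 pmol RNA in EPPS pH 7.5 was reacted with 50 pmoles of a 30-nt RNA substrate for 1 h at 37 °C across several added MgCl2 levels (1–48 mM), then stopped with EDTA. Products were reverse transcribed from a substrate-complementary primer, PCR-amplified and sequenced (HiSeq 4000). Fitness is a variant's read proportion after selection over that before, normalised to wild type.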
With A111C A120C A145C C150G C169U the reverse-splicing fitness was 0.0267.
Variant A111C A120C A145C C150G C169A has a reverse-splicing fitness of 0.00813.
With A111C A120C A145C C150G C169G the reverse-splicing fitness was 0.0064.
C82U A145C C150U C169G U176C gave a reverse-splicing fitness of 0.00881.
Work on C82U A145C C150U C169G U176G yielded a reverse-splicing fitness of 0.0047.
For C82U A145C C150U C169G U176A, the reverse-splicing fitness was 0.0158.
With A111C A120C A145C C150U U176G the reverse-splicing fitness was 0.0168.
For A111C A120C A145C C150U U176C, the reverse-splicing fitness was 0.0914.
A111C A120C A145C C150U U176A showed a reverse-splicing fitness of 0.069.
Variant C82U A145C C169A U176C has a reverse-splicing fitness of 0.00633.
Variant C82U A145C C169A U176G has a reverse-splicing fitness of 0.00383.
Variant C82U A145C C169A U176A has a reverse-splicing fitness of 0.00806.
C82U A145G U176C showed a reverse-splicing fitness of 0.44.
With C82U A145G U176A the reverse-splicing fitness was 0.353.
With C82U A145G U176G the reverse-splicing fitness was 0.125.
C82U A120U C150U C169U U176G showed a reverse-splicing fitness of 0.00209.
With C82U A145U C150A C169A U176G the reverse-splicing fitness was 0.00546.
For C82U A145U C150A C169A U176A, the reverse-splicing fitness was 0.0106.
Work on C82U A145U C150A C169A U176C yielded a reverse-splicing fitness of 0.00744.
In the case of C82U A145G C150A C169U, the reverse-splicing fitness is reported as 0.0093.
In the case of C82U A145G C150A C169G, the reverse-splicing fitness is reported as 0.00784.
Work on C82U A145G C150A C169A yielded a reverse-splicing fitness of 0.0109.
C82U C150A C169U gave a reverse-splicing fitness of 0.0105.
For C82U C150A C169G, the reverse-splicing fitness was 0.00731.
C82U C150A C169A showed a reverse-splicing fitness of 0.0107.
For C82U A145G C150U C169G, the reverse-splicing fitness was 0.0102.
C82U A145G C150U C169A gave a reverse-splicing fitness of 0.0113.
Work on C82U A145G C150U C169U yielded a reverse-splicing fitness of 0.0153.
For C82U A145G C150A C169G U176A, the reverse-splicing fitness was 0.0162.
C82U A145G C150A C169G U176C gave a reverse-splicing fitness of 0.0265.
For C82U A145G C150A C169G U176G, the reverse-splicing fitness was 0.0053.
Variant A111C A120C A145C C150A has a reverse-splicing fitness of 0.0308.
A111C A120C A145C C150G gave a reverse-splicing fitness of 0.0702.
Variant A111C A120C A145C C150U has a reverse-splicing fitness of 0.175.
Variant C82U A145U C169A U176G has a reverse-splicing fitness of 0.00464.
C82U A145U C169A U176A showed a reverse-splicing fitness of 0.00693.
In the case of C82U A145U C169A U176C, the reverse-splicing fitness is reported as 0.00648.
With C82U A145G C169U U176C the reverse-splicing fitness was 0.0131.
Work on C82U A145G C169U U176A yielded a reverse-splicing fitness of 0.0137.
Variant C82U A145G C169U U176G has a reverse-splicing fitness of 0.00391.
For C82U A145U, the reverse-splicing fitness was 0.626.
For C82U A145C, the reverse-splicing fitness was 0.598.
Work on C82U A145G yielded a reverse-splicing fitness of 0.63.
Work on C82U A145G C150G C169U U176C yielded a reverse-splicing fitness of 0.0132.
Variant C82U A145G C150G C169U U176G has a reverse-splicing fitness of 0.00689.
C82U A145G C150G C169U U176A showed a reverse-splicing fitness of 0.0125.
With C82U C150U C169A U176C the reverse-splicing fitness was 0.0123.
For C82U C150U C169A U176G, the reverse-splicing fitness was 0.00561.
Work on C82U C150U C169A U176A yielded a reverse-splicing fitness of 0.0154.
C82U A145G C150A C169U U176A gave a reverse-splicing fitness of 0.0137.
C82U A145G C150A C169U U176C gave a reverse-splicing fitness of 0.0152.
C82U A145G C150A C169U U176G showed a reverse-splicing fitness of 0.00508.
In the case of C82U A145G C150G C169A U176A, the reverse-splicing fitness is reported as 0.0146.
With C82U A145G C150G C169A U176G the reverse-splicing fitness was 0.00764.
With C82U A145G C150G C169A U176C the reverse-splicing fitness was 0.0125.
C82U A145C C150U C169A U176A gave a reverse-splicing fitness of 0.00827.
C82U A145C C150U C169A U176C showed a reverse-splicing fitness of 0.00467.
Work on C82U A145C C150U C169A U176G yielded a reverse-splicing fitness of 0.00518.
Variant C82U A145C C169U U176G has a reverse-splicing fitness of 0.00457.
Work on C82U A145C C169U U176A yielded a reverse-splicing fitness of 0.0118.
In the case of C82U A145C C169U U176C, the reverse-splicing fitness is reported as 0.00956.
C82U A145G C169U showed a reverse-splicing fitness of 0.0143.
C82U A145G C169G gave a reverse-splicing fitness of 0.0106.
C82U A145G C169A showed a reverse-splicing fitness of 0.00962.
With C82U A145G C150G C169G the reverse-splicing fitness was 0.00814.
C82U A145G C150G C169U gave a reverse-splicing fitness of 0.00979.
Work on C82U A145G C150G C169A yielded a reverse-splicing fitness of 0.00942.
In the case of C82U A145G C150U C169G U176C, the reverse-splicing fitness is reported as 0.0172.
C82U A145G C150U C169G U176A showed a reverse-splicing fitness of 0.0129.
Variant C82U A145G C150U C169G U176G has a reverse-splicing fitness of 0.00503.
Variant C82U A145C C150U C169U has a reverse-splicing fitness of 0.00874.
With C82U A145C C150U C169G the reverse-splicing fitness was 0.00634.
Variant C82U A145C C150U C169A has a reverse-splicing fitness of 0.00695.
Work on A111C A120C A145C C150U C169G U176G yielded a reverse-splicing fitness of 0.00592.
In the case of A111C A120C A145C C150U C169G U176C, the reverse-splicing fitness is reported as 0.0118.
Work on A111C A120C A145C C150U C169G U176A yielded a reverse-splicing fitness of 0.0202.
For C82U A145C C150A C169U U176A, the reverse-splicing fitness was 0.0103.
Work on C82U A145C C150A C169U U176G yielded a reverse-splicing fitness of 0.00503.
Work on C82U A145C C150A C169U U176C yielded a reverse-splicing fitness of 0.00693.
Variant C82U C150U C169A has a reverse-splicing fitness of 0.00983.
For C82U C150U C169G, the reverse-splicing fitness was 0.00973.
In the case of C82U C150U C169U, the reverse-splicing fitness is reported as 0.0129.
C82U C169U U176C showed a reverse-splicing fitness of 0.0155.
Variant C82U C169U U176A has a reverse-splicing fitness of 0.0123.
